Reference: patent US20240287175A1

Biological target: mouse CD22 (mouse) (UniProt P35329)
Assay: cell-based or functional assay

Chain of UniProt P35329 (P35329 22-868): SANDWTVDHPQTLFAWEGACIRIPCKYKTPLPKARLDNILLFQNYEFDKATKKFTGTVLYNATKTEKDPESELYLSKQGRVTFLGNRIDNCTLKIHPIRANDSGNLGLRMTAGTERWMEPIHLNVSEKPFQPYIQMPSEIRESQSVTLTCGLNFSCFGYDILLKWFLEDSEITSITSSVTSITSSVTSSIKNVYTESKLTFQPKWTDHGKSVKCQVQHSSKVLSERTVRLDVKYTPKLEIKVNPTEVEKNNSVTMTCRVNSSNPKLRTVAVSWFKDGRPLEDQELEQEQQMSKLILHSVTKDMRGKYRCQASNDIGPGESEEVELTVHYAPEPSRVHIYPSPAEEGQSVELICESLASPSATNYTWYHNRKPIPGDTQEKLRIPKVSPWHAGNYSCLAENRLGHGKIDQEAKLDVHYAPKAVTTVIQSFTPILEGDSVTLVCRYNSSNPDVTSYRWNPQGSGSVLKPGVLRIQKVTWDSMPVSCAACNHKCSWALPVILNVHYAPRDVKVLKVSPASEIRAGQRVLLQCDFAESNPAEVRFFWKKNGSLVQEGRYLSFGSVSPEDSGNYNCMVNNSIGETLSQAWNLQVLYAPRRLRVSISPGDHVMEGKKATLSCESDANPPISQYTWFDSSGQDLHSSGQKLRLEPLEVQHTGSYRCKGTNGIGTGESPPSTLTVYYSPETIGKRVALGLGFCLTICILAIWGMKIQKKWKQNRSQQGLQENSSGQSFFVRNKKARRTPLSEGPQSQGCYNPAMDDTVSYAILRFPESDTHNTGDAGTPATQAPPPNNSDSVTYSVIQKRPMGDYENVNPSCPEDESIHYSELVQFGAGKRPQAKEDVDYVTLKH

- receptor occupancy necessary to achieve IC50 in the pSHP1/SHP1 assay: < 50%
Substance: mouse monoclonal anti-CD22 antibody (Cy34, BioXCell)
